T1: human LAMA4 G domain (LG1-5) displayed on 293 cells (human, UniProt Q16363 830-1821)
T1 construct: the vector's tags and membrane anchor are not written here; also called LAMA4-displaying human 293 cells; full length
T1 sequence: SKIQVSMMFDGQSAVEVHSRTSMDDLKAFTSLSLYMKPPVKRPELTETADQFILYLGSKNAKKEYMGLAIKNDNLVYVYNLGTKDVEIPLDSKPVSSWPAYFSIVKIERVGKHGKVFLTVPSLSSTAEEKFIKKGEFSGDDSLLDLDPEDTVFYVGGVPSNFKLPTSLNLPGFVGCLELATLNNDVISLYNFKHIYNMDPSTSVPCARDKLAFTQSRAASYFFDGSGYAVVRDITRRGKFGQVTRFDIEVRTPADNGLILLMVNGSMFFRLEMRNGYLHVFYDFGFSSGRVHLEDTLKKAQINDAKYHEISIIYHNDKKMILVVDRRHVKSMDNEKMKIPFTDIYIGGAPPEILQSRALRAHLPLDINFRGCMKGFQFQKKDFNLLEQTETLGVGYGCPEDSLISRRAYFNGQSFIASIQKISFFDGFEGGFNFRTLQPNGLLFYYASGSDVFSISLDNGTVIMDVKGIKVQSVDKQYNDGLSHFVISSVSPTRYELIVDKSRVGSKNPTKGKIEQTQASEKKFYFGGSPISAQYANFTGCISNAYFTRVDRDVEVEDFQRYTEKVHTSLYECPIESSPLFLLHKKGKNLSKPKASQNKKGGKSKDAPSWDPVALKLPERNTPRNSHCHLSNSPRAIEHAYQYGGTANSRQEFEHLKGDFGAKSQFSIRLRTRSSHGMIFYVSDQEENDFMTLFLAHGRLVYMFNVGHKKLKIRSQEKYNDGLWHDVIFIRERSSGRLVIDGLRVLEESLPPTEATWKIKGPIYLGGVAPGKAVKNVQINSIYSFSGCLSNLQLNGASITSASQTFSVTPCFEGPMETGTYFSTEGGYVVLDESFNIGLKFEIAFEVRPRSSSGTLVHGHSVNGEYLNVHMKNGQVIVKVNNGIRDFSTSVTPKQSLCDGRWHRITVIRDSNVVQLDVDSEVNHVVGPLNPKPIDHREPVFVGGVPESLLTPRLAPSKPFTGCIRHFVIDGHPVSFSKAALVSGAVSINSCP

T2: human LAMA4 LG4-5 modules displayed on 293 cells (human, UniProt Q16363 1453-1821)
T2 construct: pDisplay construct on 293 cells; vector tags and anchor not written here
T2 sequence: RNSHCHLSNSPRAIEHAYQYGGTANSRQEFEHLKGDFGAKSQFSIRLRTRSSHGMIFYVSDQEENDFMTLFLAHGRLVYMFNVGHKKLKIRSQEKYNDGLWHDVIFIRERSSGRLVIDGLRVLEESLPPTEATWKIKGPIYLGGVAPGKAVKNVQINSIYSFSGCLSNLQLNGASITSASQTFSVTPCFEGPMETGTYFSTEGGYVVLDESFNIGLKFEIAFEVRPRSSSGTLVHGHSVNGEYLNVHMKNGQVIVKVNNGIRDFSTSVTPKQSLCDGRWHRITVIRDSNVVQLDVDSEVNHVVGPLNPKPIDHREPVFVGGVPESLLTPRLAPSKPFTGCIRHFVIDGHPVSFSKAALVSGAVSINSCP

T3: human LAMA4 LG1-3 modules displayed on 293 cells (human, UniProt Q16363 830-1430)
T3 construct: pDisplay construct on 293 cells; vector tags and anchor not written here
T3 sequence: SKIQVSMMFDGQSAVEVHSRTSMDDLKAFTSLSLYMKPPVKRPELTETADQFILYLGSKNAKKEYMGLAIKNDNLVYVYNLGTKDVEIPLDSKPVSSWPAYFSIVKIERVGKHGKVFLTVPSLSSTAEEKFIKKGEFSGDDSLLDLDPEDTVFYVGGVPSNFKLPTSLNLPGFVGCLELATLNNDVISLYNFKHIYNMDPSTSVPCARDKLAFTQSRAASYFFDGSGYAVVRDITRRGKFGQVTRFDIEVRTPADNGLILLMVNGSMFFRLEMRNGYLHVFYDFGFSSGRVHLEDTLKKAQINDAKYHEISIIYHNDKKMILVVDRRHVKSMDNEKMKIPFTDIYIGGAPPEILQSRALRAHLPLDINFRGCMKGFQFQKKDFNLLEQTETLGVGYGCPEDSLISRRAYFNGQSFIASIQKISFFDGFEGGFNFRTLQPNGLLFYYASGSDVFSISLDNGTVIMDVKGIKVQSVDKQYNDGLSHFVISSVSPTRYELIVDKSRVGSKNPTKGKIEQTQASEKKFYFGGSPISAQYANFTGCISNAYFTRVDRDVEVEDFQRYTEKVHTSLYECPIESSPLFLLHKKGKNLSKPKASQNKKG


What was measured:
[1] = molecular target: T1, human LAMA4 G domain (LG1-5) displayed …; test: LAMA4 pDisplay flow cytometric blocking assay on LAMA4-displaying 293 cells; blocked ligand: 650-conjugated mouse MCAM-Fc
[2] = molecular target: T2, human LAMA4 LG4-5 modules displayed on …; test: flow cytometry on 293 cells displaying LAMA4 G-domain variants; % binding
From the text: (§1) LGde1 has a full-length G domain (i.e., LG1-5) with LG1 deleted, LGde2 has a full-length G domain with LG2 deleted, and LGde3 has a full-length G domain with LG3 deleted. Recombinant MCAM-Fc protein was able to specifically bind 293 cells expressing LAMA4 variants LG1-5, LG1-3, and LGde 1 (LG23), but not 293 cells expressing LAMA 4 variants LG4-5, LGde2 (LG13), or LGde3 (LG12).

[3] = molecular target: T3, human LAMA4 LG1-3 modules displayed on …; test: as above
From the text: as §1

[4] = molecular target: T1, human LAMA4 G domain (LG1-5) displayed …; test: as above
From the text: as §1

IC50 (read off the curve) [1] [µg/mL]	binding result [2]	binding result [3]	binding result [4]	Binder
~0.03	no binding	–	–	mouse monoclonal antibody 19C12 (antibody, V domains shown, Mouse hybridoma antibody; Mouse IgG2b was used as its isotype control; also called m19C12) VH: QVQLQQSGAELVKPGASVKISCKASGYAFSTYWMNWVKQRPGEGLEWIGQIYPGDGDTNYNGKFKGKATLTADKSSSTAYMQLSSLTSEDSAVYFCARSDGYYDYWGQGTTLTVSS VL: NIVLTQSPASLAVSLGQRATISCRASESVDSYGTSFMHWYQQKPGQPPKLLICLASSLESGVPARFSGSGSRTDFTLTIDPVEADDAATYYCQQNNEDPPTFGAGTKLELKR
–	–	binds	binds	mouse MCAM-Fc fusion protein (Fc fusion, UniProt Q8R2Y2 24-563, looked up, extracellular domain; Made in house; also called mMCAM-Fc; 650-conjugated mouse MCAM-Fc; not shown: human IgG1 (Fc part of the fusion)) VPGEEKQPVPTPDLVEAEVGSTALLKCGPSRASGNFSQVDWFLIHKERQILIFRVHQGKGQREPGEYEHRLSLQDSVATLALSHVTPHDERMFLCKSKRPRLQDHYVELQVFKAPEEPTIQANVVGIHVDRQELREVATCVGRNGYPIPQVLWYKNSLPLQEEENRVHIQSSQIVESSGLYTLKSVLSARLVKEDKDAQFYCELSYRLPSGNHMKESKEVTVPVFYPAEKVWVEVEPVGLLKEGDHVTIRCLTDGNPQPHFTINKKDPSTGEMEEESTDENGLLSLEPAEKHHSGLYQCQSLDLETTITLSSDPLELLVNYVSDVQVNPTAPEVQEGESLTLTCEAESNQDLEFEWLRDKTGQLLGKGPVLQLNNVRREAGGRYLCMASVPRVPGLNRTQLVSVGIFGSPWMALKERKVWVQENAVLNLSCEASGHPQPTISWNVNGSATEWNPDPQTVVSTLNVLVTPELLETGAECTASNSLGSNTTTIVLKLVTLTTLIPDSSQTTGLSTLTVSPHTRANSTSTEKKLPQPESKGVV

Reference: patent publication US20170158755A1 (PROTHENA BIOSCIENCES, published 2017)
